Laboratory results taken from the RNAGym collection of RNA variant scans (doi:10.1093/molbev/msab373).

B1: Azoarcus group I ribozyme (parent)
chain: GUGCCUUGCGCCGGGAAACCACGCAAGGGAUGGUGUCAAAUUCGGCGAAACCUAAGCGCCCGCCCGGGCGUAUGGCAACGCCGAGCCAAGCUUCGGCGCCUGCGCCGAUGAAGGUGUAGAGACUAGACGGCACCCACCUAAGGCAAACGCUAUGGUGAAGGCAUAGUCCAGGGAGUGGCGAAAGUCACACAAACCGG

Variants of: B1
Assay: reverse-splicing fitness (ratio to wild type); higher = more active; in vitro selection; Mg2+ level not given
In short: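 An in vitro group I ribozyme library with randomized positions was T7-transcribed and gel-purified. In triplicate, 10 pmol RNA in EPPS pH 7.5 was reacted with 50 pmoles of a 30-nt RNA substrate for 1 h at 37 °C across several added MgCl2 levels (1–48 mM), then stopped with EDTA. Products were reverse transcribed from a substrate-complementary primer, PCR-amplified and sequenced (HiSeq 4000). Fitness is a variant's read proportion after selection over that before, normalised to wild type.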

Variant | reverse-splicing fitness
C82A A111G A120U A145G C169G U176G | 0.00191
C82A A111G A120U A145G C169G U176C | 0.00421
C82A A111G A120U A145G C169G U176A | 0.00375
C82A A111G A120U C150G C169U U176A | 0.00322
C82A A111G A120U C150G C169U U176G | 0.00249
C82A A111G A120U C150G C169U U176C | 0.00511
C82A A111G A120U A145C C150G U176G | 0.00262
C82A A111G A120U A145C C150G U176C | 0.00393
C82A A111G A120U A145C C150G U176A | 0.00295
C82A A111G A120U C150A C169A U176C | 0.00319
C82A A111G A120U C150A C169A U176A | 0.00499
C82A A111G A120U C150A C169A U176G | 0.00194
C82A A111G A145C C150U U176A | 0.0434
C82A A111G A145C C150U U176C | 0.0542
C82A A111G A145C C150U U176G | 0.0154
C82A A111G A145G C150G C169A U176C | 0.0154
C82A A111G A145G C150G C169A U176A | 0.0148
C82A A111G A145G C150G C169A U176G | 0.00909
C82A A111G A120U C150G U176C | 0.00582
C82A A111G A120U C150G U176A | 0.00446
C82A A111G A120U C150G U176G | 0.0031

Variant | reverse-splicing fitness
C82A A111G A120U A145C C169G U176G | 0.00175
C82A A111G A120U A145C C169G U176C | 0.00189
C82A A111G A120U A145C C169G U176A | 0.00249
C82A A111G A120U A145G C150U C169U U176C | 0.00442
C82A A111G A120U A145G C150U C169U U176G | 0.00242
C82A A111G A120U A145G C150U C169U U176A | 0.00523
C82A A111G A120U C150U C169G U176A | 0.00869
C82A A111G A120U C150U C169G U176G | 0.00175
C82A A111G A120U C150U C169G U176C | 0.00437
C82A A111G A145C U176C | 0.248
C82A A111G A145C U176G | 0.0484
C82A A111G A145C U176A | 0.181
C82A A111G A120U A145C C150U C169G | 0.00298
C82A A111G A120U A145C C150U C169A | 0.00248
C82A A111G A120U A145C C150U C169U | 0.00308
C82A A111G A120U A145G C169U | 0.00421
C82A A111G A120U A145G C169G | 0.00402
C82A A111G A120U A145G C169A | 0.00307
C82A A111G A120U A145U C150G C169G | 0.00311
C82A A111G A120U A145U C150G C169U | 0.00268
C82A A111G A120U A145U C150G C169A | 0.00373

Variant | reverse-splicing fitness
C82A A111G A120U A145C C169A U176C | 0.00231
C82A A111G A120U A145C C169A U176G | 0.00163
C82A A111G A120U A145C C169A U176A | 0.00258
C82A A111G A120U A145U C150G U176A | 0.0037
C82A A111G A120U A145U C150G U176C | 0.00587
C82A A111G A120U A145U C150G U176G | 0.0023
C82A A111G A145C C150A C169G U176C | 0.0145
C82A A111G A145C C150A C169G U176A | 0.0291
C82A A111G A145C C150A C169G U176G | 0.00722
C82A A111G A120U A145G U176G | 0.00317
C82A A111G A120U A145G U176A | 0.00959
C82A A111G A120U A145G U176C | 0.0165
C82A A111G A145C C150G C169A U176G | 0.00658
C82A A111G A145C C150G C169A U176C | 0.00805
C82A A111G A145C C150G C169A U176A | 0.00847
C82A A111G A120U A145G C150G C169U U176G | 0.00328
C82A A111G A120U A145G C150G C169U U176C | 0.00796
C82A A111G A120U A145G C150G C169U U176A | 0.00739
C82A A111G A120U A145G C150G C169G U176A | 0.00925
C82A A111G A120U A145G C150G C169G U176G | 0.00316
C82A A111G A120U A145G C150G C169G U176C | 0.00646

Variant | reverse-splicing fitness
C82A A111G A145C C150G | 0.0325
C82A A111G A145C C150A | 0.018
C82A A111G A145C C150U | 0.0851
C82A A111G A120U C150U C169G | 0.00566
C82A A111G A120U C150U C169U | 0.0051
C82A A111G A120U C150U C169A | 0.00487
C82A A111G A120U U176A | 0.0096
C82A A111G A120U U176G | 0.00504
C82A A111G A120U U176C | 0.0161
C82A A111G A120U A145C C150G C169A | 0.0025
C82A A111G A120U A145C C150G C169U | 0.00332
C82A A111G A120U A145C C150G C169G | 0.00351
C82A A111G A120U A145U C150A C169U U176G | 0.0018
C82A A111G A120U A145U C150A C169U U176A | 0.00277
C82A A111G A120U A145U C150A C169U U176C | 0.00285
C82A A111G A120U A145C C150U | 0.0111
C82A A111G A120U A145C C150G | 0.00637
C82A A111G A145C C150A C169A U176G | 0.00644
C82A A111G A145C C150A C169A U176C | 0.00723
C82A A111G A145C C150A C169A U176A | 0.0122
